Residue numbers refer to the chain shown, from its start. In names and notes the source's numbering stands.
B1: N336I (protein)
chain: MQLRNPELHLGCALALRFLALVSWDIPGARALDNGLARTPTMGWLHWERFMCNLDCQEEPDSCISEKLFMEMAELMVSEGWKDAGYEYLCIDDCWMAPQRDSEGRLQADPQRFPHGIRQLANYVHSKGLKLGIYADVGNKTCAGFPGSFGYYDIDAQTFADWGVDLLKFDGCYCDSLENLADGYKHMSLALNRTGRSIVYSCEWPLYMWPFQKPNYTEIRQYCNHWRNFADIDDSWKSIKSILDWTSFNQERIVDVAGPGGWNDPDMLVIGNFGLSWNQQVTQMALWAIMAAPLFMSNDLRHISPQAKALLQDKDVIAINQDPLGKQGYQLRQGDIFEVWERPLSGLAWAVAMINRQEIGGPRSYTIAVASLGKGVACNPACFITQLLPVKRKLGFYEWTSRLRSHINPTGTVLLQLENTMQMSLKDLL
B2: N336S (protein)
chain: B1 chain with I336S
B3: N336T (protein)
chain: B1 chain with I336T
B4: N336Y (protein)
chain: B1 chain with I336Y
B5: F337C (protein)
chain: B1 chain with I336N, F337C
B6: F337L (protein)
chain: B1 chain with I336N, F337L
B7: F337V (protein)
chain: B1 chain with I336N, F337V
B8: F337Y (protein)
chain: B1 chain with I336N, F337Y

The molecules below were run on mutant form of α-Gal A expressed in HEK-293 cells (assay: HEK assay (GLP HEK / Migalastat Amenability Assay): α-Gal A activity in lysates of transiently transfected HEK-293 cells incubated with or without 10 μM migalastat). Conditions: 10 μM migalastat versus baseline.
Format: cell-based, human
Procedure, shortened: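 HEK-293 cells transiently transfected with mutant α-Gal A and incubated with or without 10 μM migalastat; lysate activity given as nmol free 4-MU released per mg protein per hour. Values are mean±SEM.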
In the case of B1, the “Absolute increase (% WT)” value is reported as 23.0 % WT and the Relative increase is reported as 2.1. With B2 the “Absolute increase (% WT)” value was 18.7 % WT and the Relative increase was 1.2. B3 was tested, and the “Absolute increase (% WT)” value was 29.7 % WT and the Relative increase was 2.0. B4 was tested, and the “Absolute increase (% WT)” value was 16.6 % WT and the Relative increase was 1.3. For B5, the “Absolute increase (% WT)” value was 19.0 % WT and the Relative increase was 1.9. In the case of B6, the “Absolute increase (% WT)” value is reported as 20.8 % WT and the Relative increase is reported as 1.4. In the case of B7, the “Absolute increase (% WT)” value is reported as 31.1 % WT and the Relative increase is reported as 1.4. B8 was tested, and the “Absolute increase (% WT)” value was 21.6 % WT and the Relative increase was 1.4.

Same assay, conditions: absence of migalastat; percentage of baseline wild-type α-Gal A activity; mean ± SEM
B1 was tested, and the “Baseline α-Gal A activity (% WT)” value was 20.7 ± 2.7 % WT. With B2 the “Baseline α-Gal A activity (% WT)” value was 79.7 ± 3.8 % WT. With B3 the “Baseline α-Gal A activity (% WT)” value was 28.9 ± 1.3 % WT. B4 was tested, and the “Baseline α-Gal A activity (% WT)” value was 66.3 ± 3.7 % WT. B5 was tested, and the “Baseline α-Gal A activity (% WT)” value was 21.7 ± 0.8 % WT. With B6 the “Baseline α-Gal A activity (% WT)” value was 57.8 ± 4.8 % WT. In the case of B7, the “Baseline α-Gal A activity (% WT)” value is reported as 65.9 ± 4.1 % WT. In the case of B8, the “Baseline α-Gal A activity (% WT)” value is reported as 52.3 ± 4.2 % WT.

Same assay, conditions: lysates of HEK-293 cells transiently transfected with the mutant form, incubated 5 days in absence of migalastat; mean ± SEM
With B1 the “Baseline α-Gal A activity” value was 8544 ± 1083 nmol/mg/h. For B2, the “Baseline α-Gal A activity” value was 32974 ± 2396 nmol/mg/h. In the case of B3, the “Baseline α-Gal A activity” value is reported as 12743 ± 709 nmol/mg/h. With B4 the “Baseline α-Gal A activity” value was 29615 ± 1640 nmol/mg/h. With B5 the “Baseline α-Gal A activity” value was 9557 ± 452 nmol/mg/h. B6 was tested, and the “Baseline α-Gal A activity” value was 23197 ± 2254 nmol/mg/h. B7 was tested, and the “Baseline α-Gal A activity” value was 29582 ± 2747 nmol/mg/h. In the case of B8, the “Baseline α-Gal A activity” value is reported as 21577 ± 1930 nmol/mg/h.

Same assay, conditions: lysates of HEK-293 cells transiently transfected with the mutant form, incubated 5 days with 10 μM migalastat; mean ± SEM
B1 was tested, and the “10 μM migalastat α-Gal A activity” value was 18303 ± 1404 nmol/mg/h. With B2 the “10 μM migalastat α-Gal A activity” value was 40651 ± 2487 nmol/mg/h. For B3, the “10 μM migalastat α-Gal A activity” value was 25898 ± 1374 nmol/mg/h. For B4, the “10 μM migalastat α-Gal A activity” value was 37475 ± 2540 nmol/mg/h. With B5 the “10 μM migalastat α-Gal A activity” value was 17991 ± 960 nmol/mg/h. With B6 the “10 μM migalastat α-Gal A activity” value was 31963 ± 2641 nmol/mg/h. In the case of B7, the “10 μM migalastat α-Gal A activity” value is reported as 42718 ± 2776 nmol/mg/h. For B8, the “10 μM migalastat α-Gal A activity” value was 30991 ± 2695 nmol/mg/h.

Same assay, conditions: with 10 μM migalastat, 5 days; percentage of baseline wild-type α-Gal A activity; mean ± SEM
For B1, the “10 μM migalastat α-Gal A activity (% WT)” value was 43.8 ± 1.6 % WT. B2 was tested, and the “10 μM migalastat α-Gal A activity (% WT)” value was 98.4 ± 3.1 % WT. With B3 the “10 μM migalastat α-Gal A activity (% WT)” value was 58.6 ± 2.3 % WT. With B4 the “10 μM migalastat α-Gal A activity (% WT)” value was 83 ± 4.4 % WT. With B5 the “10 μM migalastat α-Gal A activity (% WT)” value was 40.7 ± 1.6 % WT. With B6 the “10 μM migalastat α-Gal A activity (% WT)” value was 78.6 ± 3.1 % WT. In the case of B7, the “10 μM migalastat α-Gal A activity (% WT)” value is reported as 97 ± 4.6 % WT. With B8 the “10 μM migalastat α-Gal A activity (% WT)” value was 73.9 ± 3.2 % WT.

Reference: US11833164B2, “Methods of treating Fabry disease in patients having a mutation in the GLA gene” (Amicus Therapeutics, Inc., priority 2019, dated 2023)
